Read-outs that look alike come from different tables or passages of the source. Starred links: 1 amine or outer side, 2 acyl side, 3 side chain; linkers in the order of their positions; H or OH if unused. Positions of bridges follow the written chain, without caps; N, C: chain ends. Non-standard residues stand in square brackets, D forms with d. Residues, ends and D or L forms follow the SMILES beside them. *: point of attachment. X1 = COc1cc2cc(c1Cl)N(C)C(=O)C[C@H](OC(=O)[C@H](C)N(C)C(=O)CCS*)[C@]1(C)O[C@H]1[C@H](C)[C@@H]1C[C@@](O)(NC(=O)O1)[C@H](OC)/C=C/C=C(\C)C2; N(3-sulfanylpropyl)dPhe = O=C([C@@H](Cc1ccccc1)N(CCCS[*:3])[*:1])[*:2]
Legend:
[1] = tested on: NCI-H524 human small cell lung cancer cells; assay: cells; assay type: cell-based
Protocol: Conjugates of the present invention were assessed in an in vitro assay evaluating inhibition of cell proliferation. NCI-H524 (ATCC) human small cell lung cancer cells were plated in 96 well, V-bottomed plates (Costar) at a concentration of 5,000 cells/well. 24 hours later, cells were treated with either conjugate for 2 hours and further incubated 70 hours, or for octreotide competition experiments, treated with 100 μM octreotide for 30 min, and then treated with conjugate for 2 hours, and further incubated for 70 hours. Conjugate starting dose was 20 μM and three fold serial dilutions were done for a total of ten points. After 2 hours of treatment, cells were spun down, the drug containing media was removed, and fresh complete medium was added and used to resuspend the cells, which were spun again. After removal of the wash media, the cells were resuspended in complete medium, and then transferred into white walled, flat bottomed 96 well plates. […] Proliferation was measured using CellTiter Glo reagent using the standard protocol (Promega) and a Glomax multi+ detection system (Promega). Percent proliferation inhibition was calculated using the following formula: % inhibition=(control−treatment)/control*100. Control is defined as vehicle alone. IC50 curves were generated using the nonlinear regression analysis (four parameter) with GraphPad Prism 6.

[2] = H69 tumor DM-1 levels by LC/MS-MS; assay type: in vivo, mice; conditions: mouse, tumor (NCI-H69 SCLC xenograft); 0.4 mg/kg for DM-1; 24 hour time point
Protocol: (§1) To examine the ability of conjugates of the present invention to accumulate in tumors, a murine cancer model was used. All mice were treated in accordance with the OLAW Public Health Service Policy on Human Care and Use of Laboratory Animals and the ILAR Guide for the Care and Use of Laboratory Animals. All in vivo studies were conducted following the protocols approved by the Blend Therapeutics Institutional Animal Care and Use Committee. Animals were inoculated with 2.5×10^6 NCI-H69 SCLC (small cell lung cancer) cells in 1:1 RPMI 1640 (Invitrogen, Carlsbad, Calif.)/Matrigel® (BD Biosciences, San Jose, Calif.) via subcutaneous injection to the right flank. Tumors were allowed to reach an approximate volume of ˜500 mm3. Animals were then randomized into treatment groups of 3 animals per time point and were dosed at 1 mg/kg (10% propylene glycol in water for injection for free conjugates, or 10% sucrose for nanoparticles), or 0.4 mg/kg for DM-1 (10% propylene glycol in water for injection). The 24 hour time point was used as a benchmark across conjugates.
(§2) Tumor DM-1 levels were determined by liquid chromatography mass spectrometry (LC/MS-MS). Four volumes of 5 mM 6-maleimidohexanoic acid to 1 part tumor v/w was added and homogenized for about 10-15 seconds with a handheld homogenizer. 10 μL of 500 mM Tris(2-carboxyethyl)phosphine was added to 100 uL of tumor homogenate, mixed well and incubated at room temperature for about 5-15 min. 200-300 uL of acetonitrile was used to precipitate proteins in tumor homogenate, samples were centrifuged for 5 min, and supernatant was injected onto LC/MS-MS system for DM-1 analysis.

[3] = Single dose exploratory toxicity study; assay type: in vivo, SD female rat; conditions: 0.4 mg/kg
Protocol: Single dose exploratory toxicity studies in SD female rat (dose 0.5 mg/kg to 1.5 mg/kg) for 7-10 days were carried out. Clinical observations, body weight, clinical blood chemistry, histopathology, and complete blood counts were assessed. In the 10-day study, DM1 (0.4 mg/kg) was compared to Conjugate 57 at an equivalent dose of DM1 (1.0 mg/kg of conjugate) and at a 50% higher dose (1.5 mg/kg of conjugate).
Decreased white blood cell (WBC) count is a known dose limiting toxicity of DM1. WBC count was tracked in all groups.
Liver toxicity is also a know dose limiting toxicity of DM1. Alanine transaminase (ALT) and aspartate aminotransferase (AST) are markers of liver toxicity and were measured in all groups.

NCI-H69 SCLC tumors = assay: H69 tumor DM-1 levels by LC/MS-MS; assay type: in vivo, mice; conditions: 1 mg/kg; 24 hour time point
Protocol: as §1, §2

Compound | H69 tumor DM-1 levels (NCI-H69 SCLC tumors) [nM] | further results
COc1cc2cc(c1Cl)N(C)C(=O)C[C@H](OC(=O)[C@H](C)N(C)C(=O)CCS)C1(C)O[C@H]1[C@H](C)[C@@H]1C[C@@](O)(NC(=O)O1)[C@H](OC)/C=C/C=C(\C)C2 (stereo partly drawn) [DM-1, mertansine, reference compound] |  | IC50 ([1]; Homo sapiens, NCI-H524, read-out: H524 IC50 (nM)): 90 nM; IC50 ([1]; Homo sapiens, NCI-H524, read-out: H524 IC50+ 100 uM octreotide (nM)): 90 nM; concentration at 24 h [2]: 31.6 nM; AST and ALT [3]: dramatic increases in AST and ALT at day 5; Day 5 weight change (%) [3]: −18%; WBC count [3]: dramatic decreases in WBC count; clinical outcome [3]: had to be euthanized on day 5 because they were moribund
COc1cc2cc(c1Cl)N(C)C(=O)C[C@H](OC(=O)[C@H](C)N(C)C(=O)CCSSCCOc1ccc(C[C@@H](N)C(=O)N[C@H]3CSSC[C@@H](C(=O)N[C@H](C(=O)O)[C@@H](C)O)NC(=O)[C@H]([C@@H](C)O)NC(=O)[C@H](CCCCN)NC(=O)[C@@H](Cc4c[nH]c5ccccc45)NC(=O)[C@H](Cc4ccc(O)cc4)NC3=O)cc1)[C@]1(C)O[C@H]1[C@H](C)[C@@H]1C[C@@](O)(NC(=O)O1)[C@H](OC)/C=C/C=C(\C)C2 [Conjugate 111] | 82.6 | 
COc1cc2cc(c1Cl)N(C)C(=O)C[C@H](OC(=O)[C@H](C)N(C)C(=O)CCSSCCC(=O)NCc1ccc(C[C@@H](N)C(=O)N[C@H]3CSSC[C@@H](C(=O)N[C@H](C(=O)O)[C@@H](C)O)NC(=O)[C@H]([C@@H](C)O)NC(=O)[C@H](CCCCN)NC(=O)[C@@H](Cc4c[nH]c5ccccc45)NC(=O)[C@H](Cc4ccc(O)cc4)NC3=O)cc1)[C@]1(C)O[C@H]1[C@H](C)[C@@H]1C[C@@](O)(NC(=O)O1)[C@H](OC)/C=C/C=C(\C)C2 [Conjugate 115] | 37.1 | 
CCCCCCCCN[C@H](Cc1ccccc1)C(=O)N[C@H]1CSSC[C@@H](C(=O)N[C@H](C(=O)NCCSSCCC(=O)N(C)[C@@H](C)C(=O)O[C@H]2CC(=O)N(C)c3cc(cc(OC)c3Cl)C/C(C)=C/C=C/[C@@H](OC)[C@@]3(O)C[C@H](OC(=O)N3)[C@@H](C)[C@@H]3O[C@@]23C)[C@@H](C)O)NC(=O)[C@H]([C@@H](C)O)NC(=O)[C@H](CCCCN)NC(=O)[C@@H](Cc2c[nH]c3ccccc23)NC(=O)[C@H](Cc2ccc(O)cc2)NC1=O [Conjugate 55] | 95.3 | 
COc1cc2cc(c1Cl)N(C)C(=O)C[C@H](OC(=O)[C@H](C)N(C)C(=O)CCSSCCCN[C@H](Cc1ccccc1)C(=O)N[C@H]1CSSC[C@@H](C(=O)N[C@H](CO)[C@@H](C)O)NC(=O)[C@H]([C@@H](C)O)NC(=O)[C@H](CCCCN)NC(=O)[C@@H](Cc3c[nH]c4ccccc34)NC(=O)[C@H](Cc3ccccc3)NC1=O)[C@]1(C)O[C@H]1[C@H](C)[C@@H]1C[C@@](O)(NC(=O)O1)[C@H](OC)/C=C/C=C(\C)C2 [Conjugate 76] | 62.2 | 
COc1cc2cc(c1Cl)N(C)C(=O)C[C@H](OC(=O)[C@H](C)N(C)C(=O)CCSSCCC(=O)NCCCC[C@H]1C(=O)N[C@@H](Cc3ccc(O)cc3)C(=O)N[C@H](Cc3c[nH]c4ccccc34)C(=O)N[C@@H](CCCCN)C(=O)N[C@@H]([C@@H](C)O)C(=O)N[C@@H](Cc3ccccc3)C(=O)N1C)[C@]1(C)O[C@H]1[C@H](C)[C@@H]1C[C@@](O)(NC(=O)O1)[C@H](OC)/C=C/C=C(\C)C2 [Conjugate 10] | 72.1 | 
COc1cc2cc(c1Cl)N(C)C(=O)C[C@H](OC(=O)[C@H](C)N(C)C(=O)CCSSC[C@H](NC(=O)CC[C@H]1C(=O)N[C@@H](Cc3ccc(O)cc3)C(=O)N[C@H](Cc3c[nH]c4ccccc34)C(=O)N[C@@H](CCCCN)C(=O)N[C@@H]([C@@H](C)O)C(=O)N[C@@H](Cc3ccccc3)C(=O)N1C)C(=O)NC(C)(C)CC(C)(C)C)[C@]1(C)O[C@H]1[C@H](C)[C@@H]1C[C@@](O)(NC(=O)O1)[C@H](OC)/C=C/C=C(\C)C2 [Conjugate 16] | 96.4 | 
COc1cc2cc(c1Cl)N(C)C(=O)C[C@H](OC(=O)[C@H](C)N(C)C(=O)CCSSCCCN[C@H](Cc1ccccc1)C(=O)N[C@H]1CSSC[C@@H](C(=O)N[C@H](C(=O)O)[C@@H](C)O)NC(=O)[C@H]([C@@H](C)O)NC(=O)[C@H](CCCCN)NC(=O)[C@@H](Cc3c[nH]c4ccccc34)NC(=O)[C@H](Cc3ccc(O)cc3)NC1=O)[C@]1(C)O[C@H]1[C@H](C)[C@@H]1C[C@@](O)(NC(=O)O1)[C@H](OC)/C=C/C=C(\C)C2 [Conjugate 80] | 91.2 | 
COc1cc2cc(c1Cl)N(C)C(=O)C[C@H](OC(=O)[C@H](C)N(C)C(=O)CCSSCCNC(=O)CC[C@H]1C(=O)N[C@@H](Cc3ccc(O)cc3)C(=O)N[C@H](Cc3c[nH]c4ccccc34)C(=O)N[C@@H](CCCCN)C(=O)N[C@@H]([C@@H](C)O)C(=O)N[C@@H](Cc3ccccc3)C(=O)N1C)[C@]1(C)O[C@H]1[C@H](C)[C@@H]1C[C@@](O)(NC(=O)O1)[C@H](OC)/C=C/C=C(\C)C2 [Conjugate 14] | 70.1 | 
CCCCN(CCSSCCC(=O)N(C)[C@@H](C)C(=O)O[C@H]1CC(=O)N(C)c2cc(cc(OC)c2Cl)C/C(C)=C/C=C/[C@@H](OC)[C@@]2(O)C[C@H](OC(=O)N2)[C@@H](C)[C@@H]2O[C@@]12C)C(=O)CC[C@H]1C(=O)N[C@@H](Cc2ccc(O)cc2)C(=O)N[C@H](Cc2c[nH]c3ccccc23)C(=O)N[C@@H](CCCCN)C(=O)N[C@@H]([C@@H](C)O)C(=O)N[C@@H](Cc2ccccc2)C(=O)N1C [Conjugate 22] | 145 | 
COc1cc2cc(c1Cl)N(C)C(=O)C[C@H](OC(=O)[C@H](C)N(C)C(=O)CCSSCCCN[C@H](Cc1ccccc1)C(=O)N[C@H]1CSSC[C@@H](C(=O)N[C@@H](Cc3c[nH]c4ccccc34)C(N)=O)NC(=O)[C@H](C(C)C)NC(=O)[C@H](CCCCN)NC(=O)[C@@H](Cc3c[nH]c4ccccc34)NC(=O)[C@H](Cc3ccc(O)cc3)NC1=O)[C@]1(C)O[C@H]1[C@H](C)[C@@H]1C[C@@](O)(NC(=O)O1)[C@H](OC)/C=C/C=C(\C)C2 [Conjugate 78] (H-[N(3-sulfanylpropyl)dPhe](X1)CY[dW]KVCW-NH2; disulfide 2-7) | 36.2 | 
COc1cc2cc(c1Cl)N(C)C(=O)C[C@H](OC(=O)C(C)N(C)C(=O)CCSSCCC(=O)NCCCOCCOCCOCCCNC(=O)CC[C@H]1C(=O)N[C@@H](Cc3ccc(O)cc3)C(=O)N[C@H](Cc3c[nH]c4ccccc34)C(=O)N[C@@H](CCCCN)C(=O)N[C@@H]([C@@H](C)O)C(=O)N[C@@H](Cc3ccccc3)C(=O)N1C)[C@]1(C)O[C@H]1[C@H](C)[C@@H]1C[C@@](O)(NC(=O)O1)[C@H](OC)/C=C/C=C(\C)C2 (stereo partly drawn) [Conjugate 18] | 86.3 | IC50 ([1]; 2 hours treatment, 70 hours further incubation, read-out: H524 IC50): 1480 nM; IC50 ([1]; read-out: H524 IC50+ 100 uM octreotide, 100 μM octreotide for 30 min before conjugate): 2160 nM
COc1cc2cc(c1Cl)N(C)C(=O)C[C@H](OC(=O)[C@H](C)N(C)C(=O)CCSSCCNC(=O)[C@@H](NC(=O)[C@@H]1CSSC[C@H](NC(=O)[C@H](N)Cc3ccccc3)C(=O)N[C@@H](Cc3ccc(O)cc3)C(=O)N[C@H](Cc3c[nH]c4ccccc34)C(=O)N[C@@H](CCCCN)C(=O)N[C@@H]([C@@H](C)O)C(=O)N1)[C@@H](C)O)[C@]1(C)O[C@H]1[C@H](C)[C@@H]1C[C@@](O)(NC(=O)O1)[C@H](OC)/C=C/C=C(\C)C2 [Conjugate 35] | 23.2 | 
